Target: pVP28-Agα1p displayed on the cell surface of P. pastoris (white spot syndrome virus (WSSV))
Assay: yeast agglutination; two yeast clones mixed in PBS with 1% BSA at initial OD600 = 0.7, left to stand 1 h; percent agglutination from the fall in OD600; cells induced with methanol 24-96 h

“mPmRab7-Agα1p displayed on the cell surface of P. pastoris (domain or fragment)” was tested, and the percent agglutination (48 h induction) was 38% and the percent agglutination (longer induction times) was 20%.

Reference: article PMC4471349
